Measurements taken from the supplement of paper PMC10065799, “High-throughput profiling of sequence recognition by tyrosine kinases and SH2 domains using bacterial peptide display” (eLife, 2023).

Columns and labels:
Grb2 SH2 = Grb2 SH2 (UniProt P62993); assay: SH2 binding enrichment of the phosphorylated peptide, bacterial display (enrichment ratio); higher = better substrate or ligand; peptides without Tyr show the background
c-Src SH2 = assay: as above
SHP2-C SH2 = assay: as above
FGFR1 = FGFR1 (UniProt P11362); assay: phosphorylation enrichment, bacterial display (enrichment ratio); higher = better substrate or ligand; peptides without Tyr show the background
FGFR1, sequence (P11362 whole entry, looked up): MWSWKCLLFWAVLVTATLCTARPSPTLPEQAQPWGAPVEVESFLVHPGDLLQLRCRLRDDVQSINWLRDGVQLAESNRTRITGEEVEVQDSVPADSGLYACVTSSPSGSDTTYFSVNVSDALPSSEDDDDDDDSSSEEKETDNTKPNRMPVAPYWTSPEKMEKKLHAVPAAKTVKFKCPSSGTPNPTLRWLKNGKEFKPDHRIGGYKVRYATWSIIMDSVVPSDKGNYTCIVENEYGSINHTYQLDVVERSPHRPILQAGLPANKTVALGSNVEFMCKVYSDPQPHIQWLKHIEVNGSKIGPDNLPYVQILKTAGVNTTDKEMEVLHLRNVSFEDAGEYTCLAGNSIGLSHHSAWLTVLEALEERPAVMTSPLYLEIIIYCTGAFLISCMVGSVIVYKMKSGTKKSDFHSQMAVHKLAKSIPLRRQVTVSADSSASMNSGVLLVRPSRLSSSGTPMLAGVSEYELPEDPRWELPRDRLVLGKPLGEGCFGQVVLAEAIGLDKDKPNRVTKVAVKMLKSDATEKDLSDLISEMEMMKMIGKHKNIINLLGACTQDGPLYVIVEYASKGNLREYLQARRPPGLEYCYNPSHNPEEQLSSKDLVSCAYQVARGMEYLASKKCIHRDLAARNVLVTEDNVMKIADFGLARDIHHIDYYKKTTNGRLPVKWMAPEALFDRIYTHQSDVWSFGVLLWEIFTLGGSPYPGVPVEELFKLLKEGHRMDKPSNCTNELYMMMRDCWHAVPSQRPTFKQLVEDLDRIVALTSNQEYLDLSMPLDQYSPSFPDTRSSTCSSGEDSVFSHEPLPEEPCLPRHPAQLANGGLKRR

Fer (mouse) = assay: as above
EPHB1 = EPHB1 (UniProt P54762); assay: as above
EPHB1, sequence (P54762 whole entry, looked up): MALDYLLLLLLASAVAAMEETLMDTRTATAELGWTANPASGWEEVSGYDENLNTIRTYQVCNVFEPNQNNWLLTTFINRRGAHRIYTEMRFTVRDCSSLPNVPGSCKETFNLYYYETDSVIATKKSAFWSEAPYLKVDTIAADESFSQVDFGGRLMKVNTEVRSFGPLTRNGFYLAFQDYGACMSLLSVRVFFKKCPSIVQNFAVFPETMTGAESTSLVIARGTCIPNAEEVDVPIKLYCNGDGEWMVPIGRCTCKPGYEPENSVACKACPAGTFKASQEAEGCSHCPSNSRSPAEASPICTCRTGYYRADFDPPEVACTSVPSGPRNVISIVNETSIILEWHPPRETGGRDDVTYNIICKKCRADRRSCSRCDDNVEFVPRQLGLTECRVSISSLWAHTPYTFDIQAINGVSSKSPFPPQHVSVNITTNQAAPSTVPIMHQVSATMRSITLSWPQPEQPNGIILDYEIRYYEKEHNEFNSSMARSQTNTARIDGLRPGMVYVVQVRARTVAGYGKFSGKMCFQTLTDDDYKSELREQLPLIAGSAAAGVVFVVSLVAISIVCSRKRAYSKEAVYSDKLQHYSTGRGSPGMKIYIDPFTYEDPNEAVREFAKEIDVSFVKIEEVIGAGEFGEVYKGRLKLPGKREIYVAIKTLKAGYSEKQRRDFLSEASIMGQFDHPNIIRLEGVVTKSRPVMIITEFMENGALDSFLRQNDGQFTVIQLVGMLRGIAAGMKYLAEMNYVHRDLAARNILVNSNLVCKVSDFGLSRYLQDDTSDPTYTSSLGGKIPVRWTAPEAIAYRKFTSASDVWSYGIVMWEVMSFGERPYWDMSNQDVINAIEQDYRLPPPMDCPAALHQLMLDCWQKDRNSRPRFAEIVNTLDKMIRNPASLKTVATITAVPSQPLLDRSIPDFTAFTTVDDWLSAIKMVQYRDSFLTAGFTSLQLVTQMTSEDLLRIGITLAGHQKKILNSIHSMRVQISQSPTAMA

FGFR3 = FGFR3 (UniProt P22607); assay: as above
FGFR3, sequence (P22607 whole entry, looked up): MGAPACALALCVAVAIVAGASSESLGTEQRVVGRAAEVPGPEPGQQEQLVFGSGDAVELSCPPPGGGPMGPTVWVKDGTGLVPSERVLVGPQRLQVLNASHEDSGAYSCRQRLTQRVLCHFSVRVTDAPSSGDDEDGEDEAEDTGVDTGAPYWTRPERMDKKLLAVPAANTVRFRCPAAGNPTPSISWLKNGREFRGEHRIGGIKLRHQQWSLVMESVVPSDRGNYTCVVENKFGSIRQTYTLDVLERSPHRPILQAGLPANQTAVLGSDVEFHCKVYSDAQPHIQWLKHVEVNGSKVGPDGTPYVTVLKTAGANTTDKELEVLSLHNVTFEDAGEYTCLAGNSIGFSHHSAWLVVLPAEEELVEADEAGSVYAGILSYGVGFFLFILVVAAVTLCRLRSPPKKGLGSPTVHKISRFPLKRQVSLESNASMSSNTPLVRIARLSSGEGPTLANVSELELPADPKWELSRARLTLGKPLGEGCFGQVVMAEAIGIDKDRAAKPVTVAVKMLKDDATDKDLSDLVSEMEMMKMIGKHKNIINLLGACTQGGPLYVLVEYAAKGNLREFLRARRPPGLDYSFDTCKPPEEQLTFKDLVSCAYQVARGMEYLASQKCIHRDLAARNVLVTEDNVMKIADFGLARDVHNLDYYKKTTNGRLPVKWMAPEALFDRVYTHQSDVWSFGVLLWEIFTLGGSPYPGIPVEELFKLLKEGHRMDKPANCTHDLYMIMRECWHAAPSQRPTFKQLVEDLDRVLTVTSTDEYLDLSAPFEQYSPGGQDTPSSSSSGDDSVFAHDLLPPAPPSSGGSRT

Fes = Fes (UniProt P07332); assay: as above
Fes, sequence (P07332 whole entry, looked up): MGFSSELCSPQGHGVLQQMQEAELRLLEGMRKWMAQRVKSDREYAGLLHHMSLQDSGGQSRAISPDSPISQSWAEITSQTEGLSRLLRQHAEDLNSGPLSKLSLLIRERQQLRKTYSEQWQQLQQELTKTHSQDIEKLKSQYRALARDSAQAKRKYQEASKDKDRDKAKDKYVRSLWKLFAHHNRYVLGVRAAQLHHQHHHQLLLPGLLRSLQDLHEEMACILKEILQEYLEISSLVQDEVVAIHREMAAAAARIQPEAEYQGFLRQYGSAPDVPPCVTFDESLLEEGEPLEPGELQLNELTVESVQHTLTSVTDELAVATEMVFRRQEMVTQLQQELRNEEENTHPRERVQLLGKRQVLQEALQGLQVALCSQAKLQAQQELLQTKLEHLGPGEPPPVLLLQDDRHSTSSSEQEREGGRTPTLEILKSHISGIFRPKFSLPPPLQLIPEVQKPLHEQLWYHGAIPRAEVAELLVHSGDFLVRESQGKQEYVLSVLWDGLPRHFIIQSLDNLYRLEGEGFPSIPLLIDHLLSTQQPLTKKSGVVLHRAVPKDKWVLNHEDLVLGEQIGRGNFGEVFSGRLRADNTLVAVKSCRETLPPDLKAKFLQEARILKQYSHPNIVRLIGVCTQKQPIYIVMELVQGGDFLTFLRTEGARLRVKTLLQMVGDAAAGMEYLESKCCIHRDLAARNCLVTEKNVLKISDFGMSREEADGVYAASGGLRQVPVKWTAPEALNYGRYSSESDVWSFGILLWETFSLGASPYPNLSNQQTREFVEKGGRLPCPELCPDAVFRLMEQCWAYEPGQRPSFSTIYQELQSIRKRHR

c-Abl (mouse) = assay: as above
EPHB2 = EPHB2 (UniProt P29323); assay: as above
AncSZ = assay: as above
Fyn = Fyn (UniProt P06241); assay: as above
Jak2 = Jak2 (UniProt O60674); assay: as above
Jak2, sequence (O60674 whole entry, looked up): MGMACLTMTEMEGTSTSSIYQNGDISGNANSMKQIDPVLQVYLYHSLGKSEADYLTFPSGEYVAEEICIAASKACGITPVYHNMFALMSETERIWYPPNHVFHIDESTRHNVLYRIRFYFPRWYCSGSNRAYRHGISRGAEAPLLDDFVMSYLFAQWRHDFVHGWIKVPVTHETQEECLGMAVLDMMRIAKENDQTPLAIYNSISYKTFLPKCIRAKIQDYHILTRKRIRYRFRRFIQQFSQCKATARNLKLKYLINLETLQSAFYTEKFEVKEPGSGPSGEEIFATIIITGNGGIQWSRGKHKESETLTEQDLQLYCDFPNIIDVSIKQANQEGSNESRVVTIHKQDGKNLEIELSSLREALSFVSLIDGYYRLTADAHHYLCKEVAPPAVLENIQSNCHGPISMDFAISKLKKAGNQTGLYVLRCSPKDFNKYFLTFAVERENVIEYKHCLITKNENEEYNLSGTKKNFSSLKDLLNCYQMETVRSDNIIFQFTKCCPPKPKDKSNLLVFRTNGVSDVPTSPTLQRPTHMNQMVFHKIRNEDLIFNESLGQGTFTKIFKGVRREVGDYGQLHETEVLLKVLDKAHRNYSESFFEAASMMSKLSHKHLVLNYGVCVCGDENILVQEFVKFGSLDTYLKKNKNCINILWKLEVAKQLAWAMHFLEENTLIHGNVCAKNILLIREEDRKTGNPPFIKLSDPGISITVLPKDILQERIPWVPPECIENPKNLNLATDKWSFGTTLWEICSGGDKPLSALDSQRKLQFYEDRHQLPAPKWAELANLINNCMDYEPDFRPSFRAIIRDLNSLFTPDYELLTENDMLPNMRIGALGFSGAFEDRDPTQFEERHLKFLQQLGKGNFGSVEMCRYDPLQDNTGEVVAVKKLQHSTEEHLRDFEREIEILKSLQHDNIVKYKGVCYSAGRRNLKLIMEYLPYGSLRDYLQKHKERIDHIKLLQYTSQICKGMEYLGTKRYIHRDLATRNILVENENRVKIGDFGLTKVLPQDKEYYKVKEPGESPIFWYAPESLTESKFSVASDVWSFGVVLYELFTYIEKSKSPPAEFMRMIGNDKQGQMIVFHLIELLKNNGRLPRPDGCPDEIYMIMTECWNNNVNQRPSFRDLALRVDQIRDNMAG

Hck = Hck (UniProt P08631); assay: as above
MERTK = MERTK (UniProt Q12866); assay: as above
c-Src = assay: as above
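For SH2 binding enrichment of the phosphorylated peptide, bacterial display in this document: peptide library displayed on the E. coli surface as eCPX fusions, selected cells deep-sequenced, score is each peptide's frequency after selection divided by its frequency in the input.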
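For phosphorylation enrichment, bacterial display in this document: 11-residue human phosphosite peptides and single-mutation variants displayed on the E. coli surface, counted by deep sequencing, each peptide's frequency after selection divided by its frequency in the unselected input library; frequency after pTyr selection over input frequency; kinase dosed for 20-30% of maximal phosphorylation in three min.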

Grb2 SH2, sequence (P62993 whole entry, looked up): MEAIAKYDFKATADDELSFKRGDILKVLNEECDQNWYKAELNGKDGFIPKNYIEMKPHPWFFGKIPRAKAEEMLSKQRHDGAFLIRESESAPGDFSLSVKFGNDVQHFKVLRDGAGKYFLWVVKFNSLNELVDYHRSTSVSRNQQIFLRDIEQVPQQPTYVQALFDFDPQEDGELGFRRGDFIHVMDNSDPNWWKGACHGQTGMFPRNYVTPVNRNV

Sequence	SH2 binding enrichment (Grb2 SH2)	SH2 binding enrichment (c-Src SH2)	SH2 binding enrichment (SHP2-C SH2)	phosphorylation enrichment (FGFR1)	phosphorylation enrichment (Fer (mouse))	phosphorylation enrichment (EPHB1)	phosphorylation enrichment (FGFR3)	phosphorylation enrichment (Fes)	phosphorylation enrichment (c-Abl (mouse))	phosphorylation enrichment (EPHB2)	phosphorylation enrichment (AncSZ)	phosphorylation enrichment (Fyn)	phosphorylation enrichment (Jak2)	phosphorylation enrichment (Hck)	phosphorylation enrichment (MERTK)	phosphorylation enrichment (c-Src)
EFISESCGEII [EZH2_Y641_Y641S]	1	0.532	0.716	0.567	0.484	0.544	0.592	1.19	0.783	0.752	1.17	0.484	1.04	0.476	0.419	0.568
IEKLPYIDKWF [CPS1_Y872_T871P]	0.782	0.642	0.679	0.51	0.333	0.472	0.567	1.01	0.574	0.482	0.953	0.368	0.833	0.456	0.359	0.479
IKKFKYGIEEH [GJA1_Y137]	0.644	0.502	0.61	0.4	0.382	0.42	0.476	0.697	0.498	0.497	0.836	0.374	0.582	0.402	0.323	0.336
DQIDTYELSGA [DNM1_Y354_G359A]	0.824	0.493	0.727	0.475	0.637	0.545	0.809	1.16	0.681	0.554	1.21	0.964	1.03	0.741	0.475	0.793
DDDPEYRKFLE [UPF3B_Y160]	0.834	0.547	0.542	0.669	0.478	0.612	0.799	1.22	0.577	0.7	1.32	0.617	1.06	0.597	0.566	0.483
ILDEAYVMAGA [ERBB2_Y772_V777A]	0.736	0.543	0.857	0.639	0.516	0.662	0.789	1.27	0.761	0.67	1.48	0.596	0.986	0.537	0.507	0.744
RFLERYIFNRQ [HLA-DPB1_Y57_E62Q_YF]	0.901	0.577	0.833	0.448	0.75	0.603	0.642	1.63	1.36	0.29	1.57	0.535	1.71	0.678	0.756	0.893
THEVRYVSAGQ [SLCO4A1_Y77]	0.771	0.495	0.927	0.416	0.47	0.393	0.45	0.773	0.485	0.368	0.733	0.398	0.632	0.374	0.368	0.366
STASGYSDVTD [DTX2_Y425]	0.851	3.68	1.11	0.497	0.398	0.448	0.487	0.84	0.61	0.464	0.721	0.447	0.661	0.449	0.355	0.358
VFPIDYFFPPQ [AR_Y552_L548F_YF]	1.4	0.646	1.32	12.6	0.643	1.19	10.7	1.04	1.03	1.53	4.04	0.508	2.76	0.618	0.518	0.906
ALEQKYWALGQ [MAP1A_Y1555]	0.867	1.49	0.662	0.674	0.436	0.53	0.665	0.735	0.537	0.492	0.768	1.39	0.886	0.875	1.3	1.82
HQNGMYGLHQD [SGSH_Y89]	0.97	0.603	0.962	0.673	0.656	0.346	0.516	0.886	0.726	0.591	0.643	0.568	0.726	0.564	0.678	0.647
ALCHFYKLNII [ETV6_Y402_R399C_YF]	1.12	0.915	1.06	0.479	0.692	0.607	0.806	1.42	0.833	0.732	1.19	0.537	1.26	0.544	0.499	0.581
FAFQLYDLDRD [CHP2_Y123_YF]	0.991	0.923	0.885	0.467	0.631	1.23	0.68	1.37	0.823	0.673	1.06	1.2	1.13	1.03	0.694	2.17
VDEVLYEDSST [MTHFS_Y197]	0.849	0.489	0.635	0.742	2.56	0.666	0.886	1.34	0.785	0.671	1.53	0.571	1.18	0.646	0.492	0.615
DLGIQYKVLKP [CTNNA1_Y177_A179V]	0.793	0.411	0.691	0.481	0.417	0.462	0.692	1.28	0.759	0.624	1.1	0.46	1.12	0.548	0.413	0.521
